Results published in patent US20210275657A1, “NEOANTIGENS AND USES THEREOF” (BioNTech US Inc., priority 2018, published 2021).
Blank lines part the entries; values can stand above or below the binder they belong to.

Experiments:
Details in all cases: remark: other sources report otherwise
HLA-A02:01 (human) [1] = experiment: peptide-HLA affinity, Example 41
HLA-A02:01 (human) [2] = experiment: peptide-HLA stability, Example 41
HLA-A02:01 (human) [3] = experiment: peptide-HLA stability, Example 36
HLA-A02:01 (human) [4] = experiment: peptide-HLA affinity, Example 36
HLA-A01:01 (human) [5] = experiment: peptide-HLA affinity, Example 41
HLA-A01:01 (human) [6] = experiment: peptide-HLA stability, Example 41
HLA-A02:01 (human) [7] = experiment: peptide-HLA affinity, Example 9
HLA-A02:01 (human) [8] = experiment: peptide-HLA stability, Example 9
HLA-A24:02 (human) [9] = experiment: peptide-HLA affinity, Example 9
HLA-A24:02 (human) [10] = experiment: peptide-HLA stability, Example 9
HLA-B08:01 (human) [11] = experiment: peptide-HLA stability, Example 9
HLA-A02:01 (human) [12] = experiment: pMHC-I dissociation, 125I-b2m, 37C; average of 2
HLA-B08:01 (human) [13] = experiment: pMHC-I dissociation, 125I-b2m, 37C; average of 2
HLA-A02:01 (human) [14] = experiment: pMHC-I dissociation, 125I-b2m, 37C; experiment 1
HLA-B08:01 (human) [15] = experiment: pMHC-I dissociation, 125I-b2m, 37C; experiment 1
HLA-A02:01 (human) [16] = experiment: pMHC-I dissociation, 125I-b2m, 37C; experiment 2
HLA-B08:01 (human) [17] = experiment: pMHC-I dissociation, 125I-b2m, 37C; experiment 2
HLA-B07:02 (human) [18] = experiment: peptide-HLA stability, Example 36
HLA-B08:01 (human) [19] = experiment: peptide-HLA stability, Example 36
HLA-B07:02 (human) [20] = experiment: peptide-HLA affinity, Example 36
HLA-B08:01 (human) [21] = experiment: peptide-HLA affinity, Example 36
HLA-B08:01 (human) [22] = experiment: peptide-HLA stability, Example 41
HLA-B07:02 (human) [23] = experiment: peptide-HLA affinity, Example 41
HLA-B07:02 (human) [24] = experiment: peptide-HLA stability, Example 41

B1: … (peptide)
peptide: MQLMPFGCLL
- Affinity (HLA-A02:01 (human) [1]): 16.3 nM
- Stability (1/2 hr) (HLA-A02:01 (human) [2]): 0.381 h

B2: … (peptide)
peptide: IMQLMPFGC
- Affinity (HLA-A02:01 (human) [1]): 1210 nM
- Stability (1/2 hr) (HLA-A02:01 (human) [2]): 0.37 h

B3: … (peptide)
peptide: STVQLIMQL
- Affinity (HLA-A02:01 (human) [1]): 7260 nM
- Stability (1/2 hr) (HLA-A02:01 (human) [2]): 0 h

B4: … (peptide)
peptide: YMANGSLLN
- Stability (1/2 hr) (HLA-A02:01 (human) [3]): 0 h
- Affinity (HLA-A02:01 (human) [4]): 4000 nM

B5: … (peptide)
peptide: LTSTVQLIM
- Affinity (HLA-A01:01 (human) [5]): 2.89 µM
- Stability (1/2 hr) (HLA-A01:01 (human) [6]): 0.104 h

B6: … (peptide)
peptide: ALQPLQPHA
- Observed MHC affinity (HLA-A02:01 (human) [7]): 604 nM
- Observed MHC stability (HLA-A02:01 (human) [8]): 1.5 h

B7: … (peptide)
peptide: YMFLKAESKI
- Observed MHC affinity (HLA-A24:02 (human) [9]): 7 µM
- Observed MHC stability (HLA-A24:02 (human) [10]): 1.2 h
- Observed MHC stability (HLA-A02:01 (human) [8]): 0.6 h
- Observed MHC stability (HLA-B08:01 (human) [11]): 0.4 h
- half-life (HLA-A02:01 (human) [12]): 36 min
- half-life (HLA-B08:01 (human) [13]): 24 min
- half-life (HLA-A02:01 (human) [14]): 36 min
- half-life (HLA-B08:01 (human) [15]): 24 min
- half-life (HLA-A02:01 (human) [16]): 36 min
- half-life (HLA-B08:01 (human) [17]): 30 min

Further lines, results first:

- Stability (1/2 hr) (HLA-B07:02 (human) [18]): 0 h
- Stability (1/2 hr) (HLA-A02:01 (human) [3]): 3.04 h
- Stability (1/2 hr) (HLA-B08:01 (human) [19]): 0 h
- Affinity (HLA-B07:02 (human) [20]): 866 nM
- Affinity (HLA-A02:01 (human) [4]): 67.7 nM
- Affinity (HLA-B08:01 (human) [21]): 960 nM
B8: … (peptide)
peptide: SLLNYLREM

- Stability (1/2 hr) (HLA-A02:01 (human) [3]): 0 h
- Affinity (HLA-A02:01 (human) [4]): 1010 nM
B9: … (peptide)
peptide: MANGSLLNYL

- Affinity (HLA-A02:01 (human) [1]): 653 nM
- Stability (1/2 hr) (HLA-A02:01 (human) [2]): 0.516 h
- Stability (1/2 hr) (HLA-B08:01 (human) [22]): 0 h
B10: … (peptide)
peptide: IMQLMPFGCL

- Affinity (HLA-A01:01 (human) [5]): 8.28 µM
- Affinity (HLA-A02:01 (human) [1]): 537 nM
- Stability (1/2 hr) (HLA-A01:01 (human) [6]): 0 h
- Stability (1/2 hr) (HLA-A02:01 (human) [2]): 0 h
B11: … (peptide)
peptide: CLTSTVQLIM

- Affinity (HLA-A02:01 (human) [1]): 3340 nM
- Stability (1/2 hr) (HLA-A02:01 (human) [2]): 0 h
B12: … (peptide)
peptide: LIMQLMPFG

- Affinity (HLA-B07:02 (human) [23]): 1590 nM
- Affinity (HLA-A02:01 (human) [1]): 116 nM
- Stability (1/2 hr) (HLA-B07:02 (human) [24]): 0 h
- Stability (1/2 hr) (HLA-A02:01 (human) [2]): 0.368 h
- Stability (1/2 hr) (HLA-B08:01 (human) [22]): 0 h
B13: … (peptide)
peptide: MQLMPFGCL
